B1: Cell division control protein 13 (Saccharomyces cerevisiae), P32797 (parent)
chain: MDTLEEPECPPHKNRIFVSSSKDFEGYPSKAIVPVQFVALLTSIHLTETKCLLGFSNFERRGDQSQEDQYLIKLKFKDRGSERLARITISLLCQYFDIELPDLDSDSGASPTVILRDIHLERLCFSSCKALYVSKHGNYTLFLEDIKPLDLVSVISTISTKSTNSSKHSSSELISECDLNNSLVDIFNNLIEMNRDEKNRFKFVKLIHYDIELKKFVQDQQKVLSQKSKAAAINPFFVPNRLGIPYIESQNEFNSQLMTLNVDEPTTDISNMGEEMHDSADPIEDSDSSTTSSTGKYFSSKSYIQSQTPERKTSVPNNWHDDDSGSKRKRKLSFHSPNASSIRKAISYEQLSLASVGSVERLEGKIVGMNPPQFASINEFKYCTLKLYFTQLLPNVPDKVLVPGVNCIEIVIPTRERICELFGVLNCQSDKISDILLLEKPDRISVEVERILWDNDKTASPGMAVWSLKNISTDTQAQAQVQVPAQSSASIDPSRTRMSKMARKDPTIEFCQLGLDTFETKYITMFGMLVSCSFDKPAFISFVFSDFTKNDIVQNYLYDRYLIDYENKLELNEGFKAIMYKNQFETFDSKLRKIFNNGLRDLQNGRDENLSQYGIVCKMNIKVKMYNGKLNAIVRECEPVPHSQISSIASPSQCEHLRLFYQRAFKRIGESAISRYFEEYRRFFPIHRNGSHLAKLRFDEVKHEPKKSPTTPALAEHIPDLNADVSSFDVKFTDISSLLDSSARLPRPQQTHKSNTLYSCEGRIIAIEYHASDLCFHITNELPLLQTRGLAPERVLQLHIITSKNFAYFFNRSSAYLQRQPLEEKYTQLAQFLGHSFKFNITSSLTLFPDTTVALQIWCPIECTFRELQQQLAHPKVAAAPDSGSLDCAINATVNPLRLLAAQNGVTVKKEEDNDDDAGAVPTS
partner: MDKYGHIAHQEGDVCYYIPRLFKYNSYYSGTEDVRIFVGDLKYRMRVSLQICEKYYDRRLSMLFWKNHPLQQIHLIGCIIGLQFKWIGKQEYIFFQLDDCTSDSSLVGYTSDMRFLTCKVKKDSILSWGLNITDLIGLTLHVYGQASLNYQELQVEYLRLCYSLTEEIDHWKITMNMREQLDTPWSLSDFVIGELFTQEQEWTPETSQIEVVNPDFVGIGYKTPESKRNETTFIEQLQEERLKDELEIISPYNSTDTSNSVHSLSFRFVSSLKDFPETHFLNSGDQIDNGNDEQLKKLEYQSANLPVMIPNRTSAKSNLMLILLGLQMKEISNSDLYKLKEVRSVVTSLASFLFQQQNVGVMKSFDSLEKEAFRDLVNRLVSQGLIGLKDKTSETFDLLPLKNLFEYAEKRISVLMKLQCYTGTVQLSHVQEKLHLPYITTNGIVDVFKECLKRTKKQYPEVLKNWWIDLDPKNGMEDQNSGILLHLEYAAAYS

Variants of: B1
Settings: with stn1_yeast STN1, P38960

Variant | effect of a mutation on the interaction
P371S;C383S | disrupting interaction strength
C383A;M463A | disrupting interaction strength

Next, values leading:

effect of a mutation on the interaction | Variant
disrupting interaction strength | C383S;Y388A
disrupting interaction strength | C383S;L401A

Reference: IntAct's records for PubMed 23177925
